From patent US20240059757A1
Where two headings read alike, the source gives them in different places.

How the values were obtained:
[1] = biological target: SARS-CoV-2 Spike protein (SARS-CoV-2 Wuhan-Hu-1) (UniProt P0DTC2); experiment: cell-based or functional assay
[2] = biological target: BGR2008 spike protein RBD (BGR2008); experiment: BLI
[3] = biological target: WIV1 spike protein RBD (WIV1); experiment: BLI
[4] = biological target: SC2018 spike RBD (SC2018); experiment: ELISA
[5] = biological target: PANG/GX spike protein RBD (PANG/GX); experiment: ELISA
[6] = biological target: YN2013 spike RBD (YN2013); experiment: ELISA
[7] = biological target: BGR2008 spike protein RBD (BGR2008); experiment: ELISA
[8] = biological target: Anlong112 spike RBD (Anlong112); experiment: ELISA
[9] = biological target: SX2011 spike RBD (SX2011); experiment: ELISA
[10] = biological target: PANG/GD spike protein RBD (PANG/GD); experiment: ELISA
[11] = biological target: BtKY72 spike protein RBD (BtKY72); experiment: ELISA
[12] = biological target: RaTG13 spike protein RBD (RaTG13); experiment: ELISA
[13] = biological target: BGR2008 spike protein RBD (BGR2008); experiment: BLI; remark: listed apart in the source
[14] = biological target: WIV1 spike protein RBD (WIV1); experiment: BLI; remark: listed apart in the source
[15] = biological target: SC2018 spike RBD (SC2018); experiment: BLI; *no optimal fitting
[16] = biological target: PANG/GX spike protein (PANG/GX); experiment: cell-based or functional assay
[17] = biological target: PANG/GD spike protein (PANG/GD); experiment: cell-based or functional assay
[18] = biological target: ZC45 spike protein RBD (ZC45)
[19] = biological target: BGR2008 spike protein RBD (BGR2008)
[20] = biological target: BtKY72 spike protein RBD (BtKY72)
[21] = biological target: PANG/GX spike protein RBD (PANG/GX)
[22] = biological target: SC2018 spike RBD (SC2018)
[23] = biological target: PANG/GD spike protein RBD (PANG/GD)
[24] = biological target: WIV1 spike protein RBD (WIV1)
[25] = biological target: RaTG13 spike protein RBD (RaTG13)

S2X259 (antibody), sequence (VH): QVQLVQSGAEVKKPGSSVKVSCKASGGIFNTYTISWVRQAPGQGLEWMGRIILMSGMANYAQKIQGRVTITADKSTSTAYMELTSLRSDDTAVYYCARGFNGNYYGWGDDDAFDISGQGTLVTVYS
S2X259 (antibody), sequence (VL): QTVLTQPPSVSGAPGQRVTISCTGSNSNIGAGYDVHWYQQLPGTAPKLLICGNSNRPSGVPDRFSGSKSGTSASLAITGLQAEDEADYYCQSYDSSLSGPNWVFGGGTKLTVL
S2X259 Fab, sequence (VH): as the sequence (VH) above
S2X259 Fab, sequence (VL): as the sequence (VL) above

## S2E12-LS (antibody)
[1]
  neutralization EC50 (interpolated): 0.0014 µg/mL
  neutralization EC90 (interpolated): 0.0119 µg/mL
  neutralization IC50: 0.0014 µg/mL

## S2M11-LS (antibody)
[1]
  neutralization EC50 (interpolated): 0.0011 µg/mL
  neutralization EC90 (interpolated): 0.0144 µg/mL
  neutralization IC50: 0.000914 µg/mL

## S2X259 (antibody)
[2]
  Kd: 1.24 nM
[3]
  Kd: 0.61 nM
[4]
  EC50: 0.001 to 0.05 µg/mL
[5]
  EC50: 0.0281 µg/mL
[6]
  EC50: 0.001 to 0.05 µg/mL
[7]
  EC50: 0.0308 µg/mL
[8]
  EC50: 0.1 to 1 µg/mL
[9]
  EC50: 0.001 to 0.05 µg/mL
[10]
  EC50: 0.0362 µg/mL
[11]
  EC50: 0.0376 µg/mL
[12]
  EC50: 0.0401 µg/mL
[13]
  Kd: 1.04 nM
[14]
  Kd: 0.57 nM
[15]
  Kd: 6.93 nM
[16]
  neutralization IC50: 1.32 µg/mL
[17]
  neutralization IC50: 0.179 µg/mL

## S2X259 Fab
[18]
  Kd: 4000 nM
[19]
  Kd: 3.6 nM
[20]
  Kd: 0.4 nM
[21]
  Kd: 10 nM
[22]
  Kd: 64 nM
[23]
  Kd: 0.2 nM
[24]
  Kd: 1.4 nM
[25]
  Kd: 1.1 nM
